Article PMC12021056, “MISP Suppresses Ferroptosis via MST1/2 Kinases to Facilitate YAP Activation in Non‐Small Cell Lung Cancer” (Advanced Science, 2025)

Columns and labels:
His-MST2 (aa279-491) = biological target: T1, His-MST2 (aa279-491) (UniProt Q13188 279-491); test: pull-down; 2 µg GST or GST-MISP (aa352-524) incubated with 2 µg His-MST1 (aa301-487) or His-MST2 (aa279-491) for 12 h at 4 °C; SDS-PAGE and Coomassie blue staining; details: both partners purified
T1 construct: MST2 kinase, amino acids 279-491 (holds the C-terminal SARAH domain); also called SARAH domain of MST2; source: E. coli BL21, purified (Ni-NTA agarose)
T1 sequence (looked up): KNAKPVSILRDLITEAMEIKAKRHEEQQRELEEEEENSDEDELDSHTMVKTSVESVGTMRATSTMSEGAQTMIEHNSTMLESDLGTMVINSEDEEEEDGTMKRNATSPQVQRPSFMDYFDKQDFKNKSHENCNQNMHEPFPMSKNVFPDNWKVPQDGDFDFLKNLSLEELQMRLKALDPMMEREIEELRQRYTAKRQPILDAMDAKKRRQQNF

His-MST1 (aa301-487) = biological target: T2, His-MST1 (aa301-487) (UniProt Q13043 301-487); test: as above; details: both partners purified
T2 construct: MST1 kinase, amino acids 301-487 (holds the C-terminal SARAH domain, aa431-487); also called SARAH domain of MST1; source: E. coli BL21, purified (Ni-NTA agarose)
T2 sequence (looked up): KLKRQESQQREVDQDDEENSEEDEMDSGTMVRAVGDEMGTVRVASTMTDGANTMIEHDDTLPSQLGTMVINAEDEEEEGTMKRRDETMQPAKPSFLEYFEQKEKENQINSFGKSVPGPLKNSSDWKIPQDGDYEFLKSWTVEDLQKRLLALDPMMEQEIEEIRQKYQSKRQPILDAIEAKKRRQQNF

binding result (His-MST2 (aa279-491)): binds
binding result (His-MST1 (aa301-487)): binds
B1: GST-MISP (aa352-524) (domain or fragment, UniProt Q8IVT2 352-524, looked up)
chain: QRDIVQETQREEDHRREGLHVGRASTPDWVSEGPQPGLRRALSSDSILSPAPDARAADPAPEVRKVNRIPPDAYQPYLSPGTPQLEFSAFGAFGKPSSLSTAEAKAATSPKATMSPRHLSESSGKPLSTKQEASKPPRGCPQANRGVVRWEYFRLRPLRFRAPDEPQQAQVPH
notes: source: E. coli BL21, purified (glutathione S-transferase agarose)
